Test results: the Immune Epitope Database (IEDB)
pKd: −log10 of the molar value.

Experiments:
Experiment in all cases: IEDB peptide-MHC binding, purified MHC/competitive/radioactivity; filed as Kd, often an IC50 or EC50 that approximates it; ≥ and ≤ were set here for values at or beyond the usual limits of such assays
[1] = molecular target: HLA-A*03:01
[2] = molecular target: HLA-A*11:01
[3] = molecular target: HLA-A*31:01
[4] = molecular target: HLA-A*33:01
[5] = molecular target: HLA-A*68:01
[6] = molecular target: HLA-A*02:03
[7] = molecular target: HLA-A*02:06; settings: source organism: Human immunodeficiency virus type 1 BH10
[8] = source organism: Vaccinia virus WR
[9] = source organism: Mammarenavirus whitewaterense
[10] = source organism: SARS coronavirus Tor2

SIMETIDPVY
pKd [1, 8]: 6.65
pKd [2, 8]: 8.36
pKd [3, 8]: 5.01
pKd [4, 8]: ≤ 4.44
pKd [5, 8]: 7.54

SINSEYIESK
pKd [1, 8]: 5.11
pKd [2, 8]: 7.26
pKd [3, 8]: ≤ 4.15
pKd [4, 8]: ≤ 4.15
pKd [5, 8]: 5.59

SLGKAVHQV
pKd ([6]; source organism: Dengue virus 4 Philippines/H241/1956): 7.84

SLLNATDIAV
pKd ([6]; source organism: Human immunodeficiency virus type 1 BH10): 6.28
pKd [7]: 7.78

SLVKKNKKR
pKd [1, 8]: ≤ 4.11
pKd [2, 8]: ≤ 4.11
pKd [3, 8]: ≤ 4.11
pKd [4, 8]: ≤ 4.11
pKd [5, 8]: ≤ 4.11

SMDVLAEKK
pKd [1, 8]: 6.04
pKd [2, 8]: 7.59
pKd [3, 8]: ≤ 4.65
pKd [4, 8]: ≤ 4.11
pKd [5, 8]: 5.90

SRIFEELVWK
pKd [1, 9]: 6.70
pKd [2, 9]: 6.59
pKd [3, 9]: 5.44
pKd [4, 9]: ≤ 4.28
pKd [5, 9]: 6.32

SSKGLACYR
pKd [1, 8]: 4.89
pKd [2, 8]: 7.09
pKd [3, 8]: 7.42
pKd [4, 8]: 7.59
pKd [5, 8]: 8.27

SVKTQFNYFK
pKd [1, 10]: 6.84
pKd [2, 10]: 7.68
pKd [3, 10]: 7.62
pKd [4, 10]: 6.09
pKd [5, 10]: 7.10

SVPLPCQLMY
pKd [1, 8]: 6.38
pKd [2, 8]: 7.42
pKd [3, 8]: ≤ 4.63
pKd [4, 8]: ≤ 4.27
pKd [5, 8]: 4.84

TAIAKCNLDH
pKd [1, 9]: ≤ 4.15
pKd [2, 9]: ≤ 4.16
pKd [3, 9]: 6.03
pKd [4, 9]: ≤ 4.47
pKd [5, 9]: 5.15

TFIDVHIPK
pKd [1, 8]: 6.73
pKd [2, 8]: 9.04
pKd [3, 8]: 8.63
pKd [4, 8]: 8.98
pKd [5, 8]: 7.94

TIEILRNYLR
pKd [1, 8]: 5.63
pKd [2, 8]: 7.31
pKd [3, 8]: 7.68
pKd [4, 8]: 7.56
pKd [5, 8]: 8.79

TIKYSNDNR
pKd [1, 8]: 4.81
pKd [2, 8]: 6.64
pKd [3, 8]: 7.71
pKd [4, 8]: 6.94
pKd [5, 8]: 8.52

TILEYLYIMR
pKd [1, 8]: 5.05
pKd [2, 8]: 5.69
pKd [3, 8]: 6.01
pKd [4, 8]: 5.64
pKd [5, 8]: 6.78

TIQRFSSLR
pKd [1, 8]: 5.28
pKd [2, 8]: 8.05
pKd [3, 8]: 9.26
pKd [4, 8]: 8.26
pKd [5, 8]: 8.31

TISSESLVY
pKd [1, 8]: 7.68
pKd [2, 8]: 7.97
pKd [3, 8]: 4.99
pKd [4, 8]: 5.26
pKd [5, 8]: 6.21
